Target: the molecule itself
Experiment: electron microscopy

B1: Taz1pΔC (C-terminally truncated version of the Taz1 protein) (domain or fragment, S. pombe, UniProt P79005 1-556, looked up)
chain: MISVQSTETIQKVLENEGDQQFDKEVVQNSDSNIETGQISDSLTKAVEERAETESSSNLSNFTTSESESSKPAYCFNSHSQNMAEGSISIPVISHSMNVENEVSTAEGQDSRTGESENDQNAMIVRSIWDIEKASLLVNDCQNIANMAEQKVMMVSAIFSESSKDIVNPESFSERLGKETVKDLYEFNEQLTTKYGLEFRTIFFSYIRKYDAYWCLFEDLEKPLKSIQFFTGLIDLLDNTNKHLTLRSIVLDALLSADEEDSFYGDALVLFEELVIRYFGTDSNPSIDASEFILSCLPYTSLDALNVVCGQVWKSQKICDFLKSTIGNTSNSPLQLRASFPAFVNAVIHFLLEFKNVRRLERKDLSVKGMLYDSDSQQILNRLRERVSGSTAQSADEASGHESDASEDTFSERTLGLNSIDNTEISEVVSLGLVSSALDKITGLLSADNLSETVSQARDFSHTLSKSLKSRAKSLSQKEAANRSKLIAKRGDNLRREASLSSEQDDLSEDFPPVRESDEQESRSGGRSSAMRVSIERSAARSGTRRSQGNPYEGYR
B1: binds.

Reference: PMC2846270 (Biochemical and biophysical research communications, 2010)
